These results are taken from patent publication US20100297664A1 (published 2010).

The target in experiment [1] is Δmot #4 403-679. Put plainly: BIACORE.
The target in experiment [2] is full-length mortalin with an His tag (recombinant, expressed in Escherichia coli). Put plainly: BIACORE.

B1: Ab (52-3) (antibody, V domains shown)
VH: QVQLQQPGAELVKPGASVKLSCKASGYTFTSYWMHWVKQRPGQGLEWIGEINPSNGRTNYNEKFKSKATLTVDKSSSTAYMQLSSLTSEDSAVYYCARSRYYGSCYFDYWGQGTTLTVSS
VL: KIVMTQAAFSNPVTLGTSASISCRSSKSLLYSNGITYLYWYLQKPGQSPQLLIYQMSNLASGVPDRFSSSGSGTDFTLRISRVEAEDVGVYYCAQNLELPWTFGGGTKLEIK
The molecule B1 had a Kd in experiment [1] of 4.61 nM.

B2: anti-mortalin monoclonal antibody 52-3 (antibody, V domains shown)
VH: B1 VH
VL: B1 VL
Regarding B2, in experiment [2], the Kd is 8.17 nM.
